Reference: the Human Domainome abundance scans (Beltran et al. 2025)
± gives the uncertainty stated by the source.

B1: RAS guanyl-releasing protein 1, residues 539 to 593; numbered along this chain, O95267 (parent)
chain: GFPHNFQETTYLKPTFCDNCAGFLWGVIKQGYRCKDCGMNCHKQCKDLVVFECKK

Variants of: B1
Experiment: abundance fitness (aPCA) (normalised: wild type 0, dead -1); higher = more abundant; growth selection in yeast, the domain comes from the species named
Settings: Homo sapiens

In order of rising abundance fitness:
1. C45P  -0.977 ± 0.22
2. C45L  -0.976 ± 0.13
3. C45R  -0.773 ± 0.083
4. C45W  -0.772 ± 0.19
5. C45N  -0.647 ± 0.34
6. C45K  -0.643 ± 0.25
7. C45V  -0.621 ± 0.068
8. C45Y  -0.575 ± 0.061
9. C45M  -0.57 ± 0.18
10. C45I  -0.554 ± 0.21
11. K46D  -0.541 ± 0.35
12. V50I  -0.541 ± 0.23
13. C45A  -0.527 ± 0.086
14. C45F  -0.514 ± 0.056
15. C45S  -0.486 ± 0.094
16. C45H  -0.446 ± 0.13
17. V49M  -0.446 ± 0.2
18. F51T  -0.435 ± 0.14
19. F51H  -0.426 ± 0.31
20. V50K  -0.383 ± 0.15
21. L48I  -0.378 ± 0.12
22. C45G  -0.347 ± 0.063
23. K46N  -0.337 ± 0.17
24. C53F  -0.32 ± 0.16
25. D47H  -0.32 ± 0.17
26. V49I  -0.319 ± 0.16
27. D47N  -0.306 ± 0.14
28. C53I  -0.297 ± 0.2
29. L48N  -0.295 ± 0.15
30. Q44I  -0.294 ± 0.28
31. V49L  -0.276 ± 0.095
32. E52W  -0.267 ± 0.11
33. C53K  -0.257 ± 0.19
34. C53R  -0.255 ± 0.067
35. K46V  -0.251 ± 0.11
36. C53T  -0.245 ± 0.1
37. Q44N  -0.238 ± 0.35
38. V50Y  -0.231 ± 0.12
39. V49C  -0.229 ± 0.09
40. K46F  -0.228 ± 0.14
41. V50N  -0.228 ± 0.11
42. Q44T  -0.226 ± 0.13
43. V50H  -0.214 ± 0.15
44. D47I  -0.211 ± 0.1
45. C53E  -0.209 ± 0.11
46. L48H  -0.209 ± 0.21
47. V50D  -0.208 ± 0.13
48. D47M  -0.204 ± 0.11
49. E52S  -0.203 ± 0.09
50. D47R  -0.177 ± 0.08
51. E52N  -0.174 ± 0.18
52. V49P  -0.174 ± 0.12
53. E52L  -0.168 ± 0.087
54. E52Q  -0.166 ± 0.15
55. V50P  -0.157 ± 0.12
56. F51K  -0.155 ± 0.085
57. L48P  -0.15 ± 0.17
58. E52V  -0.148 ± 0.055
59. D47K  -0.148 ± 0.096
60. K46P  -0.147 ± 0.084
61. D47F  -0.143 ± 0.41
62. D47W  -0.142 ± 0.082
63. D47L  -0.141 ± 0.063
64. L48R  -0.136 ± 0.079
65. V49G  -0.122 ± 0.084
66. E52M  -0.121 ± 0.053
67. V50W  -0.121 ± 0.071
68. Q44P  -0.119 ± 0.079
69. E52C  -0.115 ± 0.081
70. D47V  -0.113 ± 0.083
71. V50R  -0.11 ± 0.068
72. D47Y  -0.105 ± 0.14
73. C53V  -0.103 ± 0.062
74. C53M  -0.095 ± 0.051
75. F51W  -0.09 ± 0.094
76. K46A  -0.09 ± 0.12
77. K46S  -0.078 ± 0.069
78. V50G  -0.076 ± 0.071
79. F51A  -0.074 ± 0.083
80. V49Q  -0.071 ± 0.15
81. F51P  -0.07 ± 0.064
82. K46T  -0.069 ± 0.079
83. E52A  -0.068 ± 0.11
84. E52P  -0.066 ± 0.071
85. V50A  -0.064 ± 0.1
86. E52I  -0.063 ± 0.11
87. F51C  -0.061 ± 0.12
88. C53D  -0.061 ± 0.14
89. L48E  -0.061 ± 0.07
90. E52K  -0.057 ± 0.092
91. Q44L  -0.057 ± 0.087
92. D47A  -0.056 ± 0.09
93. V49T  -0.055 ± 0.1
94. D47P  -0.054 ± 0.11
95. E52H  -0.053 ± 0.13
96. F51L  -0.053 ± 0.067
97. L48W  -0.052 ± 0.053
98. K46Y  -0.052 ± 0.092
99. D47G  -0.05 ± 0.058
100. L48V  -0.049 ± 0.081
101. L48T  -0.047 ± 0.078
102. F51V  -0.046 ± 0.077
103. F51E  -0.044 ± 0.098
104. F51D  -0.043 ± 0.15
105. E52T  -0.037 ± 0.086
106. C45D  -0.036 ± 0.13
107. K46W  -0.032 ± 0.053
108. E52G  -0.031 ± 0.045
109. V50S  -0.03 ± 0.057
110. F51M  -0.029 ± 0.054
111. K46G  -0.018 ± 0.076
112. K46E  -0.013 ± 0.087
113. K46R  -0.01 ± 0.066
114. C53H  -0.009 ± 0.2
115. F51R  -0.008 ± 0.047
116. K46L  -0.007 ± 0.077
117. Q44M  -0.001 ± 0.12
118. V49E  -0.001 ± 0.12
119. F51Q  0.002 ± 0.091
120. V49F  0.002 ± 0.065
121. Q44W  0.003 ± 0.087
122. L48Y  0.007 ± 0.049
123. F51S  0.011 ± 0.082
124. Q44C  0.011 ± 0.12
125. L48K  0.011 ± 0.052
126. L48F  0.018 ± 0.11
127. C53L  0.021 ± 0.085
128. L48A  0.023 ± 0.048
129. L48Q  0.031 ± 0.09
130. F51G  0.033 ± 0.06
131. V49N  0.035 ± 0.15
132. V50E  0.037 ± 0.061
133. V49W  0.038 ± 0.14
134. V49A  0.041 ± 0.086
135. V50C  0.042 ± 0.06
136. Q44K  0.043 ± 0.099
137. C53Q  0.043 ± 0.077
138. V50M  0.043 ± 0.11
139. Q44R  0.047 ± 0.065
140. D47T  0.047 ± 0.09
141. F51Y  0.05 ± 0.086
142. L48M  0.055 ± 0.1
143. L48S  0.058 ± 0.089
144. V50Q  0.06 ± 0.1
145. C45E  0.068 ± 0.074
146. D47S  0.068 ± 0.082
147. L48C  0.069 ± 0.12
148. V50L  0.07 ± 0.079
149. Q44F  0.072 ± 0.14
150. L48G  0.074 ± 0.061
151. Q44V  0.079 ± 0.11
152. Q44H  0.083 ± 0.089
153. D47Q  0.083 ± 0.12
154. V49R  0.094 ± 0.1
155. K46H  0.096 ± 0.14
156. E52D  0.104 ± 0.092
157. Q44D  0.125 ± 0.12
158. Q44Y  0.128 ± 0.052
159. K46C  0.129 ± 0.092
160. C53N  0.13 ± 0.13
161. Q44E  0.131 ± 0.058
162. Q44S  0.149 ± 0.089
163. E52F  0.184 ± 0.12
164. K46M  0.208 ± 0.088
165. D47C  0.212 ± 0.097
166. V49H  0.229 ± 0.1
167. F51N  0.256 ± 0.11
